Assay results from patent EP4506361A1 (Biotheus Inc., dated 2025).

Assays:
[1] = molecular target: cynomolgus monkey c-Met protein (purchased from AcroBiosystems) (cynomolgus monkey, UniProt A0A2K5UM36 25-932); test: BLI (ForteBio), antibody on AHQ sensor, cynomolgus monkey c-Met protein in solution
[2] = molecular target: T1, rhesus c-Met on HEK293T cells overexpressing rhesus c-Met (HEK293-Rhe c-Met) (rhesus monkey, UniProt F7H1K4 25-1381); test: flow cytometry on HEK293-Rhe c-Met cells, first EC50 column
T1 construct: also called rhesus monkey c-Met
T1 sequence (F7H1K4 entry or part of it limits assumed, form in doubt): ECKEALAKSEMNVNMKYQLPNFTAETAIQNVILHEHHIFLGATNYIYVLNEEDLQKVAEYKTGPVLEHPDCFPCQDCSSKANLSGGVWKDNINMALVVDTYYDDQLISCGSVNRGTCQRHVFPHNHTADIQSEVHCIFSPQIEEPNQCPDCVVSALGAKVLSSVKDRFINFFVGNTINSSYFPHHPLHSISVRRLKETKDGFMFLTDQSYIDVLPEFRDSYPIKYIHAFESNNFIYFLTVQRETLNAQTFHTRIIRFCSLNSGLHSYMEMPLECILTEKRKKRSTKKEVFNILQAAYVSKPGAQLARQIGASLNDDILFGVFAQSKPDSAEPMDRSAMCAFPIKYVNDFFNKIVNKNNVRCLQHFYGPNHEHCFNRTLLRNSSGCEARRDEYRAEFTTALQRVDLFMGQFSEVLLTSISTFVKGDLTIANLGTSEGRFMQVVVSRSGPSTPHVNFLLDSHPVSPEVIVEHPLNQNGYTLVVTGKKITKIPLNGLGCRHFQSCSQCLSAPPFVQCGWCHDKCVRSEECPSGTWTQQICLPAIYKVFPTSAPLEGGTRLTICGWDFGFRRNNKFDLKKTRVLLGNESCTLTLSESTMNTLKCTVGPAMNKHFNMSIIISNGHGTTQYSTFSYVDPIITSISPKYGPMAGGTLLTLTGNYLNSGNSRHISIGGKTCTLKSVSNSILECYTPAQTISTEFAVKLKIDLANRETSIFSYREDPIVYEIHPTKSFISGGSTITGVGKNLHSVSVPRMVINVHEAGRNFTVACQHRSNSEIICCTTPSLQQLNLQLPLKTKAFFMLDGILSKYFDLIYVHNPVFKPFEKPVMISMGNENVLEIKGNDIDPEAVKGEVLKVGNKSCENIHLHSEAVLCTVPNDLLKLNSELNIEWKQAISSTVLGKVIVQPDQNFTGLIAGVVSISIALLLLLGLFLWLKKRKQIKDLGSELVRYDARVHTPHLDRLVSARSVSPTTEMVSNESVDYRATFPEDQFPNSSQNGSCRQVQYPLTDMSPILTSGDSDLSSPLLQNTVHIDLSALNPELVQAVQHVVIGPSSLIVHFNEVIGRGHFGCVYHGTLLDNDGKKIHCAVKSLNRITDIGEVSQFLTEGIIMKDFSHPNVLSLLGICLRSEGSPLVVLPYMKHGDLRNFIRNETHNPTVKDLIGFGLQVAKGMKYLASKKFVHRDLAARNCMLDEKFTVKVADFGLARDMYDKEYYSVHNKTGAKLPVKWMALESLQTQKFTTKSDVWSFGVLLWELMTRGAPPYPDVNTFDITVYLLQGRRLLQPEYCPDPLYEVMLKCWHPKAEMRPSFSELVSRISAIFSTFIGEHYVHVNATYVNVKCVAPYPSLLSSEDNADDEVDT

[3] = molecular target: T2, human c-Met protein (purchased from AcroBiosystems) (human, UniProt P08581 25-932); test: BLI (ForteBio), antibody on AHQ sensor, 100 nM human c-Met antigen, 1:1 model
T2 construct: Soluble antigen of the ForteBio assay; also called human c-Met antigen
T2 sequence (P08581 25-932 limits assumed): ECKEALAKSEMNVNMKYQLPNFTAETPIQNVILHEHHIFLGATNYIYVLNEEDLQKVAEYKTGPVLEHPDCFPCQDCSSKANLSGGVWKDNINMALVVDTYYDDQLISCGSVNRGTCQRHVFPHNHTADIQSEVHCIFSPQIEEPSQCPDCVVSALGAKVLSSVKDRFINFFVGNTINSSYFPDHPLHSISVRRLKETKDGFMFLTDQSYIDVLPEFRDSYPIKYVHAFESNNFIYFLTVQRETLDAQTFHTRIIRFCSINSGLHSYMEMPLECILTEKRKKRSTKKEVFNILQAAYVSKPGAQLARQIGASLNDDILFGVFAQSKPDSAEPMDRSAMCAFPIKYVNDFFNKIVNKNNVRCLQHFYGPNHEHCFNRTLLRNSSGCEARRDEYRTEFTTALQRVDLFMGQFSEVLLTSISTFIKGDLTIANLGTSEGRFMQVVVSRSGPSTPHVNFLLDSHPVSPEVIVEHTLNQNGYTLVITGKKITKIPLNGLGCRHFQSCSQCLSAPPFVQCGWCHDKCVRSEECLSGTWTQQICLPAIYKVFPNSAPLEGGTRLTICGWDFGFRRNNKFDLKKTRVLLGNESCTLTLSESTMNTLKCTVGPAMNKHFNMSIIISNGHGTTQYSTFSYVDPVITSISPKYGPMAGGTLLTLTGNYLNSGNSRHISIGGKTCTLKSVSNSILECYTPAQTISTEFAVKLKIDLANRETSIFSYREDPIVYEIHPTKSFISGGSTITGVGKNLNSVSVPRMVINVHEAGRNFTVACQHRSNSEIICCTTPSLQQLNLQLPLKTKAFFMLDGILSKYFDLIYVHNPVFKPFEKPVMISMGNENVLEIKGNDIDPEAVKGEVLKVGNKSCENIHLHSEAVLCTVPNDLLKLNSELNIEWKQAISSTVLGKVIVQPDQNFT

[4] = molecular target: T3, human c-Met on HEK293T cells overexpressing human c-Met (HEK293-Hu c-Met) (human, UniProt P08581 25-1390); test: flow cytometry on HEK293-Hu c-Met cells, first EC50 column
T3 construct: whole, on cells; also called human c-Met overexpression cells
T3 sequence (P08581 25-1390): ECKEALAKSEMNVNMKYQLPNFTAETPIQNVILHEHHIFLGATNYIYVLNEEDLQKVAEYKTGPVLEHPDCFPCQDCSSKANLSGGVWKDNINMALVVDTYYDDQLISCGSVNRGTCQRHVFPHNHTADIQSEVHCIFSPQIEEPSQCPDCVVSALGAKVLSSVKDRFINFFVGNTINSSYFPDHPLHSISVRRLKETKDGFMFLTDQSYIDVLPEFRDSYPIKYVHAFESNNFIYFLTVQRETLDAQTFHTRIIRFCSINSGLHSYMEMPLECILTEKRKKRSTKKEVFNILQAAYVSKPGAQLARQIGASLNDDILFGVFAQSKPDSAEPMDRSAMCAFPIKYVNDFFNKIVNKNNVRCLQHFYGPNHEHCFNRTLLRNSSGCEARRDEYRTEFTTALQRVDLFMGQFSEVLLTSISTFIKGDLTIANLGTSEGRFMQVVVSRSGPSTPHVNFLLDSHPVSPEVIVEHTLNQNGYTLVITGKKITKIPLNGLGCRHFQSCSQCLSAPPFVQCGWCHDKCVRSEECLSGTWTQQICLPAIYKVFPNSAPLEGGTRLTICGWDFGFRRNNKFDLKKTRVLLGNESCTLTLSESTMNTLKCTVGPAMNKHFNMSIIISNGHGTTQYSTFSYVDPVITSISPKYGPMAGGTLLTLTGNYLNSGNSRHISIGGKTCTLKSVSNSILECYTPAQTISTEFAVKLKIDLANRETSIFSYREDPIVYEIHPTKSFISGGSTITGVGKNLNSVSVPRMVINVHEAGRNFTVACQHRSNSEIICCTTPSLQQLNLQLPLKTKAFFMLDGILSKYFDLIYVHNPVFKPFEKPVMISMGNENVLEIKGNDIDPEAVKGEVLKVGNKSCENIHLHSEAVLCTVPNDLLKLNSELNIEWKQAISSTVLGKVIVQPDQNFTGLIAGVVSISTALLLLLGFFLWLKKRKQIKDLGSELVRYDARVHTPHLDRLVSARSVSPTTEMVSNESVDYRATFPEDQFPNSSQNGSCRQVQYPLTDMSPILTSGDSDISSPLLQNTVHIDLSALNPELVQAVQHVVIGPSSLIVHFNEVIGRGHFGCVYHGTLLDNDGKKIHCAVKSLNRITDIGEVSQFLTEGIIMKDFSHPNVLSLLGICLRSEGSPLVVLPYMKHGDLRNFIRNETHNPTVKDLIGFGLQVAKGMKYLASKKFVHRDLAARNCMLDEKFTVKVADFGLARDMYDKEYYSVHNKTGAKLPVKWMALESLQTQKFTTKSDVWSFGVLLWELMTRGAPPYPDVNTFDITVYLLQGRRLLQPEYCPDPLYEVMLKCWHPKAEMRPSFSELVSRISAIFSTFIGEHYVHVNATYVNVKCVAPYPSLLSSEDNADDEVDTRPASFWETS

[5] = molecular target: T1, rhesus c-Met on HEK293T cells …; test: flow cytometry on HEK293-Rhe c-Met cells
[6] = molecular target: T3, human c-Met on HEK293T cells …; test: flow cytometry on HEK293-Hu c-Met cells

cynomolgus monkey c-Met protein (purchased from AcroBiosystems), sequence (A0A2K5UM36 entry or part of it limits assumed, form in doubt): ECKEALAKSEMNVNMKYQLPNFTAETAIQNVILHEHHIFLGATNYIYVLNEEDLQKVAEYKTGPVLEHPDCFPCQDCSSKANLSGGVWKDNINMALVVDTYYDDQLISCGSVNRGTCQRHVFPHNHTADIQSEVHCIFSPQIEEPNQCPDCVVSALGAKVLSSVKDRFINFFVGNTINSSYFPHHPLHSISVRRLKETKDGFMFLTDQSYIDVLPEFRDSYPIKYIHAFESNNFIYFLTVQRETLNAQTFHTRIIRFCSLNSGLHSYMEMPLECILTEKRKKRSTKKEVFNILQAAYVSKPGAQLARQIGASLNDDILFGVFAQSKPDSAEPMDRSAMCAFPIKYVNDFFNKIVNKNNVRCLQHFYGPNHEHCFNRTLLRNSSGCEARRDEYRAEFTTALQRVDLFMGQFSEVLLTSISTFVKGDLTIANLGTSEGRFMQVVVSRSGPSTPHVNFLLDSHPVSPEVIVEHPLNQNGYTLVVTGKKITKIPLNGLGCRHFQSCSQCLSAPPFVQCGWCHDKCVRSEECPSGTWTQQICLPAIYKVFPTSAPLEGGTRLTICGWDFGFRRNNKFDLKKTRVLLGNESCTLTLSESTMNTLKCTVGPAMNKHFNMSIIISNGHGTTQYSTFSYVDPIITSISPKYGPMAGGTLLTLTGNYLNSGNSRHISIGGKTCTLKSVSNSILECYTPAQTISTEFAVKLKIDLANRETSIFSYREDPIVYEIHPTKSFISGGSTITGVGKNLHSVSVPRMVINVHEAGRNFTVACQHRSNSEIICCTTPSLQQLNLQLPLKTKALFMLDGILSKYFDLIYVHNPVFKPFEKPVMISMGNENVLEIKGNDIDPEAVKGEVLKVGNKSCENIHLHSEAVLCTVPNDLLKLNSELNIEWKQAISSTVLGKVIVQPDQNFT

| Binder | Kd [1] [nM] | koff [1] [s⁻¹] | kon [1] [M⁻¹ s⁻¹] | EC50 [2] [nM] | Kd [3] [nM] | koff [3] [s⁻¹] | kon [3] [M⁻¹ s⁻¹] | EC50 [4] [nM] | EC50 [5] [nM] | EC50 [6] [nM] |
| --- | --- | --- | --- | --- | --- | --- | --- | --- | --- | --- |
| anti-c-Met single-arm antibody 23 (antibody, human IgG1, kappa, L234A L235A) heavy: not shown light: DIVMTQSPSSLSASVGDRVTITCRASQSFSDYLNWYRQKPGKAPKLLLFAASSLQSGVPSRFSGSGSGTDFTLTISSLQPEDFATYYCQQSYSPPYTFGQGTKLEIKRTVAAPSVFIFPPSDEQLKSGTASVVCLLNNFYPREAKVQWKVDNALQSGNSQESVTEQDSKDSTYSLSSTLTLSKADYEKHKVYACEVTHQGLSSPVTKSFNRGEC not shown | 26.5 | 0.00151 | 56900 | 0.746 | 0.596 | 9.5e-05 | 160000 | 0.821 |  |  |
| anti-c-Met single-arm antibody 221 (antibody, human IgG1, kappa, L234A L235A) heavy: not shown light: EIVLTQSPGTLSLSPGERATLSCRASQSVSSSYLAWYQQKPGQAPRLLIYGPSSRATGIPDRFSGSGSGTDFTLTISSLQPADFASYYCQQSYITPYTFGQGTKVEIKRTVAAPSVFIFPPSDEQLKSGTASVVCLLNNFYPREAKVQWKVDNALQSGNSQESVTEQDSKDSTYSLSSTLTLSKADYEKHKVYACEVTHQGLSSPVTKSFNRGEC not shown | 63.8 | 0.00192 | 30100 |  | 2.01 | 0.00037 | 184000 |  | 1.48 | 1.73 |
| Amivantamab single-arm antibody (antibody, human IgG1, kappa, L234A L235A, also called control antibody Amivantamab) heavy: not shown light: DIQMTQSPSSVSASVGDRVTITCRASQGISNWLAWFQHKPGKAPKLLIYAASSLLSGVPSRFSGSGSGTDFTLTISSLQPEDFATYYCQQANSFPITFGQGTRLEIKRTVAAPSVFIFPPSDEQLKSGTASVVCLLNNFYPREAKVQWKVDNALQSGNSQESVTEQDSKDSTYSLSSTLTLSKADYEKHKVYACEVTHQGLSSPVTKSFNRGEC not shown |  |  |  | 0.241 |  |  |  | 0.323 | 0.2 | 0.396 |
| anti-c-Met single-arm antibody 223 (antibody, human IgG1, kappa, L234A L235A) heavy: not shown light: DIQLTQSPSSLSASVGDRVTITCRASQSIITYLNWYQQKPGKAPKLLIYAASSLQSGVPSRFSGSGSGTDFTLNISSLQPEDFATYYCQQANSLPYTFGQGTKVEIKRTVAAPSVFIFPPSDEQLKSGTASVVCLLNNFYPREAKVQWKVDNALQSGNSQESVTEQDSKDSTYSLSSTLTLSKADYEKHKVYACEVTHQGLSSPVTKSFNRGEC not shown | 16.2 | 0.00109 | 67300 |  | 9.76 | 0.00163 | 167000 |  | 1.06 | 0.765 |
| Onartuzumab (antibody, human IgG1, kappa, L234A L235A, Control antibody, made from three plasmids in Expi-CHO cells; also called control antibody onartuzumab; antibody onartuzumab) heavy: not shown light: DIQMTQSPSSLSASVGDRVTITCKSSQSLLYTSSQKNYLAWYQQKPGKAPKLLIYWASTRESGVPSRFSGSGSGTDFTLTISSLQPEDFATYYCQQYYAYPWTFGQGTKVEIKRTVAAPSVFIFPPSDEQLKSGTASVVCLLNNFYPREAKVQWKVDNALQSGNSQESVTEQDSKDSTYSLSSTLTLSKADYEKHKVYACEVTHQGLSSPVTKSFNRGEC not shown |  |  |  | 0.97 |  |  |  | 1.03 | 1.24 | 0.54 |
| LY2875358 single-arm antibody (antibody, human IgG1, kappa, L234A L235A, also called control antibody LY2875358) heavy: not shown light: DIQMTQSPSSLSASVGDRVTITCSVSSSVSSIYLHWYQQKPGKAPKLLIYSTSNLASGVPSRFSGSGSGTDFTLTISSLQPEDFATYYCQVYSGYPLTFGGGTKVEIKRTVAAPSVFIFPPSDEQLKSGTASVVCLLNNFYPREAKVQWKVDNALQSGNSQESVTEQDSKDSTYSLSSTLTLSKADYEKHKVYACEVTHQGLSSPVTKSFNRGEC not shown |  |  |  | 0.868 |  |  |  | 1.25 | 0.749 | 1.39 |
| anti-c-Met single-arm antibody 22 (antibody, human IgG1, kappa, L234A L235A) heavy: not shown light: DIVMTQSPSSVSASVGDRVTITCRASQGISSWLAWYQQKPGKAPKLLIYAASSLQSGVPSKFSGSGSGTEFTLTISSLQPEDFATYFCQQAYGFPLTFGGGTKVEIKRTVAAPSVFIFPPSDEQLKSGTASVVCLLNNFYPREAKVQWKVDNALQSGNSQESVTEQDSKDSTYSLSSTLTLSKADYEKHKVYACEVTHQGLSSPVTKSFNRGEC not shown | 19 | 0.00259 | 136000 | 0.726 | 4.29 | 0.000548 | 128000 | 0.947 |  |  |
| anti-c-Met single-arm antibody 187 (antibody, human IgG1, kappa, L234A L235A) heavy: not shown light: DIVMTQSPSSVSASVGDRVTITCRASQGISSWLAWYQQKPGKAPNLLIYAASNLPSGVPSRFSGSGSGTVFTLTISSLQPEDFATYYCQQSNSFPLTFGGGTKVEIKRTVAAPSVFIFPPSDEQLKSGTASVVCLLNNFYPREAKVQWKVDNALQSGNSQESVTEQDSKDSTYSLSSTLTLSKADYEKHKVYACEVTHQGLSSPVTKSFNRGEC not shown | 2.92 | 0.000947 | 324000 |  | 1.68 | 0.000369 | 220000 |  | 0.592 | 0.732 |
| anti-c-Met single-arm antibody 74 (antibody, human IgG1, kappa, L234A L235A) heavy: not shown light: DIVMTQSPSSVSASVGDRVTITCRASQGINSWLAWYQQKPGKAPNLLIYAASSLQSGVPSRFSGRGSGTDFSLTISSLHPEDFATYYCQQAKGFPLTFGGGTKVEIKRTVAAPSVFIFPPSDEQLKSGTASVVCLLNNFYPREAKVQWKVDNALQSGNSQESVTEQDSKDSTYSLSSTLTLSKADYEKHKVYACEVTHQGLSSPVTKSFNRGEC not shown | 9.7 | 0.0026 | 269000 | 1.46 | 6.01 | 0.00108 | 179000 | 1.9 |  |  |
| anti-c-Met single-arm antibody 136 (antibody, human IgG1, kappa, L234A L235A) heavy: not shown light: DIVMTQSPSSVSASVGDRVTITCRASQGISSWLAWYQQKPGKAPKLLIYAVSSLQSGVPSRFSGSGSGTDFTLTISSLQPEDFATYFCQQANSFPLTFGGGTKVEIKRTVAAPSVFIFPPSDEQLKSGTASVVCLLNNFYPREAKVQWKVDNALQSGNSQESVTEQDSKDSTYSLSSTLTLSKADYEKHKVYACEVTHQGLSSPVTKSFNRGEC not shown | 1.16 | 0.000426 | 369000 | 0.306 | 0.0293 | 6.71e-06 | 229000 | 0.452 |  |  |
